Measurements reported in paper PMC3528264.

Biological target: AflJ (A. parasiticus BN9), yeast two-hybrid fusion (A. parasiticus) (UniProt O42716)
Assay: two-hybrid

UniProt O42716, sequence (O42716 whole entry, the tested form may be a part): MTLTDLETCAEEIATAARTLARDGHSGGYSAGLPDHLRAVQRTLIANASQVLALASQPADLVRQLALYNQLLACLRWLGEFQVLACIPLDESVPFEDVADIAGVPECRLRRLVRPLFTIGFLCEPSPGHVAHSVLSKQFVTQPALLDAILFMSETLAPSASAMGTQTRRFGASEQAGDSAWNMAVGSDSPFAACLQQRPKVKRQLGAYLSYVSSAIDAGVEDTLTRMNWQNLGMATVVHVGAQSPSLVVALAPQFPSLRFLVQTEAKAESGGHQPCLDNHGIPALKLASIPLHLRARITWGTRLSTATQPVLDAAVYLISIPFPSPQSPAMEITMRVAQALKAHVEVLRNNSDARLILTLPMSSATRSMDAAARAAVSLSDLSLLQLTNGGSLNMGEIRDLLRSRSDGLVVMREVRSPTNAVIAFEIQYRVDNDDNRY

**Q.** Which colonies on QDO does the source give for “AflR, Gal4 activation domain fusion (pGADT7) (from UniProt P43651 1-444) (natural protein)” here?
**A.** The colonies on QDO was 125 colonies.
